According to publication PMC4227790:

Target: FLAG-tagged TRAP150 (thyroid hormone receptor-associated protein of 150 kDa), full length (UniProt Q9Y2W1)
Assay: co-IP; anti-FLAG immunoprecipitation of FLAG-TRAP150 (full length or truncated) from lysate of transfected HEK293 cells (hypotonic buffer with 0.5% Triton X-100, brought to 150 mM NaCl); precipitates mock- or RNase A-treated; immunoblot of endogenous partners

Chain of UniProt Q9Y2W1 (Q9Y2W1 2-955): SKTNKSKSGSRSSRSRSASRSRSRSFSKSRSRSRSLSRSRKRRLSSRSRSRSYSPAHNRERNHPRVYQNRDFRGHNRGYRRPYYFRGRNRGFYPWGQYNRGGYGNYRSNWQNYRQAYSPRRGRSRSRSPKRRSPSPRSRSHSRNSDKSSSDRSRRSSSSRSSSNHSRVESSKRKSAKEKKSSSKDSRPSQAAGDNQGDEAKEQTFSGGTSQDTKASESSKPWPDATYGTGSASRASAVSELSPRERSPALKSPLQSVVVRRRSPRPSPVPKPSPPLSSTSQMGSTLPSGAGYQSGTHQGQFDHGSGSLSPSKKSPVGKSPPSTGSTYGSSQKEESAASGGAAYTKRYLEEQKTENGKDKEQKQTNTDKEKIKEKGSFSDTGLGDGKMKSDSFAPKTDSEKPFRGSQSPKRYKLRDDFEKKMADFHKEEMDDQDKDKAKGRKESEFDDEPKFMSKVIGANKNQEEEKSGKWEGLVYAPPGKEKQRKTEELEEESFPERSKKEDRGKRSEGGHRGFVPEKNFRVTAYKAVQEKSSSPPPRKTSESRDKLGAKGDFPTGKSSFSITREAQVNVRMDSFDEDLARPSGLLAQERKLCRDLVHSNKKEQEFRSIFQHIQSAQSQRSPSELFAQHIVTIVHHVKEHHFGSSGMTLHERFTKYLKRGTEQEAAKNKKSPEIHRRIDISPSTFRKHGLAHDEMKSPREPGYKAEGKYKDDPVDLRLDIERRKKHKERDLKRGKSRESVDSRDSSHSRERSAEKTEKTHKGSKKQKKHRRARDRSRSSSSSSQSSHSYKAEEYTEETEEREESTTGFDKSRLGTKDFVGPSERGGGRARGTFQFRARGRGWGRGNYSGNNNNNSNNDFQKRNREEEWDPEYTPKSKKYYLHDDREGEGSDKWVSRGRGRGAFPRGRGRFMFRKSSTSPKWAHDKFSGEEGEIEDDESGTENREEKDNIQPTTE

B1: CPSF160 (natural protein)
chain: MYAVYKQAHPPTGLEFSMYCNFFNNSERNLVVAGTSQLYVYRLNRDAEALTKNDRSTEGKAHREKLELAASFSFFGNVMSMASVQLAGAKRDALLLSFKDAKLSVVEYDPGTHDLKTLSLHYFEEPELRDGFVQNVHTPRVRVDPDGRCAAMLVYGTRLVVLPFRRESLAEEHEGLVGEGQRSSFLPSYIIDVRALDEKLLNIIDLQFLHGYYEPTLLILFEPNQTWPGRVAVRQDTCSIVAISLNITQKVHPVIWSLTSLPFDCTQALAVPKPIGGVVVFAVNSLLYLNQSVPPYGVALNSLTTGTTAFPLRTQEGVRITLDCAQATFISYDKMVISLKGGEIYVLTLITDGMRSVRAFHFDKAAASVLTTSMVTMEPGYLFLGSRLGNSLLLKYTEKLQEPPASAVREAADKEEPPSKKKRVDATAGWSAAGKSVPQDEVDEIEVYGSEAQSGTQLATYSFEVCDSILNIGPCANAAVGEPAFLSEEFQNSPEPDLEIVVCSGHGKNGALSVLQKSIRPQVVTTFELPGCYDMWTVIAPVRKEEEDNPKGEGTEQEPSTTPEADDDGRRHGFLILSREDSTMILQTGQEIMELDTSGFATQGPTVFAGNIGDNRYIVQVSPLGIRLLEGVNQLHFIPVDLGAPIVQCAVADPYVVIMSAEGHVTMFLLKSDSYGGRHHRLALHKPPLHHQSKVITLCLYRDLSGMFTTESRLGGARDELGGRSGPEAEGLGSETSPTVDDEEEMLYGDSGSLFSPSKEEARRSSQPPADRDPAPFRAEPTHWCLLVRENGTMEIYQLPDWRLVFLVKNFPVGQRVLVDSSFGQPTTQGEARREEATRQGELPLVKEVLLVALGSRQSRPYLLVHVDQELLIYEAFPHDSQLGQGNLKVRFKKVPHNINFREKKPKPSKKKAEGGGAEEGAGARGRVARFRYFEDIYGYSGVFICGPSPHWLLVTGRGALRLHPMAIDGPVDSFAPFHNVNCPRGFLYFNRQGELRISVLPAYLSYDAPWPVRKIPLRCTAHYVAYHVESKVYAVATSTNTPCARIPRMTGEEKEFETIERDERYIHPQQEAFSIQLISPVSWEAIPNARIELQEWEHVTCMKTVSLRSEETVSGLKGYVAAGTCLMQGEEVTCRGRILIMDVIEVVPEPGQPLTKNKFKVLYEKEQKGPVTALCHCNGHLVSAIGQKIFLWSLRASELTGMAFIDTQLYIHQMISVKNFILAADVMKSISLLRYQEESKTLSLVSRDAKPLEVYSVDFMVDNAQLGFLVSDRDRNLMVYMYLPEAKESFGGMRLLRRADFHVGAHVNTFWRTPCRGATEGLSKKSVVWENKHITWFATLDGGIGLLLPMQEKTYRRLLMLQNALTTMLPHHAGLNPRAFRMLHVDRRTLQNAVRNVLDGELLNRYLYLSTMERSELAKKIGTTPDIILDDLLETDRVTAHF
With B1 the percent of CPSF160 co-precipitated was 10 to 20%.
